The nature of data set [1]: surface FLAG IF, nonpermeabilized HEK 293T, cadherin marker. The note with it: glycan lost; control: wild type.
Data set [2] can be described thus: confocal IF, colocalisation with calnexin, HEK 293T. Conditions: glycan lost; control: wild type.

B1: SUCNR1/GPR91 (succinate receptor): N8A (protein)
parent chain: MLGIMAWNATCKNWLAAEAALEKYYLSIFYGIEFVVGVLGNTIVVYGYIFSLKNWNSSNIYLFNLSVSDLAFLCTLPMLIRSYANGNWIYGDVLCISNRYVLHANLYTSILFLTFISIDRYLIIKYPFREHLLQKKEFAILISLAIWVLVTLELLPILPLINPVITDNGTTCNDFASSGDPNYNLIYSMCLTLLGFLIPLFVMCFFYYKIALFLKQRNRQVATALPLEKPLNLVIMAVVIFSVLFTPYHVMRNVRIASRLGSWKQYQCTQVVINSFYIVTRPLAFLNSVINPVFYFLLGDHFRDMLMNQLRHNFKSLTSFSRWAHELLLSFREK
As to B1, the localisation_or_trafficking entry in data set [1] is given as “increases”; in data set [2], “changes”.

B2: SUCNR1/GPR91 (succinate receptor): N168A (protein)
parent chain: MLGIMAWNATCKNWLAAEAALEKYYLSIFYGIEFVVGVLGNTIVVYGYIFSLKNWNSSNIYLFNLSVSDLAFLCTLPMLIRSYANGNWIYGDVLCISNRYVLHANLYTSILFLTFISIDRYLIIKYPFREHLLQKKEFAILISLAIWVLVTLELLPILPLINPVITDNGTTCNDFASSGDPNYNLIYSMCLTLLGFLIPLFVMCFFYYKIALFLKQRNRQVATALPLEKPLNLVIMAVVIFSVLFTPYHVMRNVRIASRLGSWKQYQCTQVVINSFYIVTRPLAFLNSVINPVFYFLLGDHFRDMLMNQLRHNFKSLTSFSRWAHELLLSFREK
In the case of B2, the localisation_or_trafficking result in data set [1] and in data set [2] was “no change” each time.
